Results taken from US10100341B2, “Tailored oils produced from recombinant oleaginous microorganisms” (Corbion Biotech, Inc., priority 2011, dated 2018).

What was measured:
[1] = system: Prototheca moriformis (UTEX 1435); assay: Steady state thioesterase mRNA level by real-time RT-PCR (promoter testing, normalized to cd189); details: low nitrogen medium
[2] = system: Prototheca moriformis (UTEX 1435); assay: cDNA abundance by real-time RT-PCR under nitrogen depletion; assay type: cell-based; details: after 24 hours of culture in low nitrogen medium
Method: A cDNA library was generated from Prototheca moriformis (UTEX 1435) using standard techniques. The Prototheca moriformis cells were grown for 48 hours under nitrogen replete conditions. […] After about 24 hours in culture, the nitrogen supply in the media was completely depleted. The collected samples were immediately frozen using dry ice and isopropanol. Total RNA was subsequently isolated from the frozen cell pellet samples and a portion from each sample was held in reserve for RT-PCR studies. The rest of the total RNA harvested from the samples was subjected to polyA selection. Equimolar amounts of polyA selected RNA from each condition was then pooled and used to generate a cDNA library in vector pcDNA 3.0 (Invitrogen). Roughly 1200 clones were randomly picked from the resulting pooled cDNA library and subjected to sequencing on both strands. Approximately 68 different cDNAs were selected from among these 1200 sequences and used to design cDNA-specific primers for use in real-time RT-PCR studies. RNA isolated from the cell pellet samples that were held in reserve was used as substrate in the real time RT-PCR studies using the cDNA-specific primer sets generated above. This reserved RNA was converted into cDNA and used as substrate for RT-PCR for each of the 68 gene specific primer sets. […] As discussed in the specification, nitrogen depletion/limitation is a known inducer of lipogenesis in oleaginous microorganisms. Fold increase refers to the fold increase in cDNA abundance after 24 hours of culture in low nitrogen medium.

B1: Aat04-Amino acid transporter 04 promoter/5′UTR: putative nitrogen-regulated promoter/5′UTR, SEQ ID NO: 65 (nucleic acid, listed as Prototheca moriformis)
DNA: CGCGTGGAGCGGTGCGTGCGGATGCCGCGCGCCTGCCAAGGCCTTTTGTATGCCTGGCCTGGGAAGTTTCCTGACTGAAGCATCTTCAAGATGCTCTCTCACGACCAGCGACACCAACACCGTCACTTTTTGCCCCTCCTGCCGCAGGTGCCACTTTCTACTTTGACGTCTTCTCCAGGCGGTACATTGCGGGACTGAGCGCCAATTCGGCCAAGAACAGCGCTGTCGACTTGAGGAGGCAGGGGTCCGTCGACTCTGCCGAGTGACACGCCTTCGACCCGACTGTACTACGGCCTGCTGAAGAGTGGGTCTCGCCGGCCGGCGTGACCGGCCCTGTGCCCACAATCGACCATCTATTCGCTCCTTGTCATCTGGCGCCGTCAATTGCCCGCGACTTGACGGCAACTGGCTCGATCGAGTCGTATTGAAAAAGCACGTTTTGTCCTACAGGGCCGCGGTCCGTTACCAACGTGGTTCTCGTTAGGTTTTCGTCGGGCGGTGGTGCGCGAACTGTCCGATGCCATCCCGGCAAACCCCAGCAAGGTCGCCAGTCTGGTTCTGACGCAATAGAGTGCGTTTTGGGCCAGTCTAAAAATTCGTCTGGCATGACGTGGCTCCACATCGTACCCGGAGCCTGCCTTGGTAATGTGAGGCACCGGTGCCAACTCCATTATGGCAGGCATCGAGCGCGCAGGTGAGTACATGACCTTCCGTGAATTGGGAAGGCGAGCTTGTGTAACGCCTGCGATCGTGCCAGTGAGGCATCGTAAACTCAAAATATTTTGTAGAAAGTGTCTGATGCCTGGTGAGGCTGCGTAGGGCAAGGGCAAGCCCTTGGCAGATGGGTAATGGGTCCGGACCTCACAACAGCAACCCCGCGTCCCCCTTAGGGCCCCTGAGGCTCGATGGCAGGGCCAGCGAGCCCGCGGCCAAAGGGCGCCATCCCACGGTCGCCCAACGACTCCACGGGTCCTATACCTCATCTTGAATGGCACTAAAAACTATAGAATATCGGGCACTGGTGGGCGTCTGGGGTACAGCTGGCCGAGCGCAGTGGCAAACCCTAGGTCCCGCCTCAAGGGCGATTCCCGGGTCAATGACACGCAAGCAAGATCACATGGCGCGGTCCGCCTCGCGGCTCCACACCCAGGCCCTAGTTTCGCAACCCATAAATATCGCCCCGATACCATCATAAGCCAGCAAATAATTTTTTATCAGAGTTCCAAACCTCCTCAGCTGTGGGAAACCAGCCCACTCTGAACG
steady state C. camphora thioesterase mRNA level relative to control (C. reinhardtii beta tubulin promoter) [1]: up to five | Fold increased (cDNA abundance) [2]: 10.95

B2: Amt02-Ammonium transporter 02 promoter/5′UTR: putative nitrogen-regulated promoter/5′UTR, SEQ ID NO: 61 (nucleic acid, listed as Prototheca moriformis)
DNA: TCACCAGCGGACAAAGCACCGGTGTATCAGGTCCGTGTCATCCACTCTAAAGAGCTCGACTACGACCTACTGATGGCCCTAGATTCTTCATCAAAAACGCCTGAGACACTTGCCCAGGATTGAAACTCCCTGAAGGGACCACCAGGGGCCCTGAGTTGTTCCTTCCCCCCGTGGCGAGCTGCCAGCCAGGCTGTACCTGTGATCGGGGCTGGCGGGAAAACAGGCTTCGTGTGCTCAGGTTATGGGAGGTGCAGGACAGCTCATTAAACGCCAACAATCGCACAATTCATGGCAAGCTAATCAGTTATTTCCCATTAACGAGCTATAATTGTCCCAAAATTCTGGTCTACCGGGGGTGATCCTTCGTGTACGGGCCCTTCCCTCAACCCTAGGTATGCGCACATGCGGTCGCCGCGCAACGCGCGCGAGGGCCGAGGGTTTGGGACGGGCCGTCCCGAAATGCAGTTGCACCCGGATGCGTGGCACCTTTTTTGCGATAATTTATGCAATGGACTGCTCTGCAAAATTCTGGCTCTGTCGCCAACCCTAGGATCAGCGGTGTAGGATTTCGTAATCATTCGTCCTGATGGGGAGCTACCGACTGCCCTAGTATCAGCCCGACTGCCTGACGCCAGCGTCCACTTTTGTGCACACATTCCATTCGTGCCCAAGACATTTCATTGTGGTGCGAAGCGTCCCCAGTTACGCTCACCTGATCCCCAACCTCCTTATTGTTCTGTCGACAGAGTGGGCCCAGAGGCCGGTCGCAGCC
steady state C. camphora thioesterase mRNA level relative to control (C. reinhardtii beta tubulin promoter) [1]: up to three | Fold increased (cDNA abundance) [2]: 10.76
